Tests used:
[1] = target: T1, soluble HLA-A2 (…) tetramer (human); assay: flow cytometry, HLA-A2 (…) tetramer staining of CHO cells transfected with the TCR
T1 construct: Bought tetramer reagent; also called MAGE-A4/HLA tetramer reagent; HLA-A02:01 MAGE-A4 tetramer
Procedure: Samples were then analyzed on an LSRFortessa X-20 (BD Biosciences, San Jose, Calif.).

[2] = target: T2, MAGE-A4 peptide on HLA-A*02:01 (human); assay: multimer staining
T2 peptide: KVLEHVVRV

[3] = target: T3, soluble HLA-A2 MAGE-A4 (…) tetramer (human); assay: flow cytometry tetramer staining; % with MAGE-A4 tetramer divided by % with MAGE-A8 tetramer (reference)
T3 construct: Bought tetramer reagent; also called MAGE-A4/HLA tetramer reagent; HLA-A02:01 MAGE-A4 tetramer
Procedure: (§1) Samples were then analyzed on an LSRFortessa X-20 (BD Biosciences, San Jose, Calif.). […] However, a more stringent cutoff, such as 3%, could be used to separate out Ag+ TCRs that behave better in the binding assay. Ag+ TCRs were determined by Next Generation Sequencing.

[4] = target: T3, soluble HLA-A2 MAGE-A4 (…) tetramer; assay: flow cytometry, HLA-A2 MAGE-A4 (…) tetramer staining of CHO cells transfected with the TCR
Procedure: as §1

[5] = target: T4, MAGE-A4 peptide on HLA-A*02:01 (human); assay: multimer staining
T4 peptide: GVYDGREHTV

Row | % in Ag+ gate >250 MFI, >1% [1] [%] | binding result [2] | MAGE-A4/MAGE-A8 (ratio of % tetramer in Ag+ gate) [3] | % tetramer in Ag+ gate (MAGE-A4) [4] [%] | binding result [5] | Binder
1 | 18 | recognises |  |  |  | PN41852 (TCR, V domains shown, stained with anti-mouse TCR constant region H57-597; full-length chains on transfected CHO cells; also called TCR No. 35) V domain 1: AQTVTQSQPEMSVQEAETVTLSCTYDTSESDYYLFWYKQPPSRQMILVIRQEAYKQQNATENRFSVNFQKAAKSFSLKISDSQLGDAAMYFCAYRSALGNDMRFGAGTRLTVKP V domain 2: DVKVTQSSRYLVKRTGEKVFLECVQDMDHENMFWYRQDPGLGLRLIYFSYDVKMKEKGDIPEGYSVSREKKERFSLILESASTNQTSMYLCASSLWALNTEAFFGQGTRLTVV
2 | 67.1 | recognises |  |  |  | PN41868 (TCR, V domains shown, stained with anti-mouse TCR constant region H57-597; full-length chains on transfected CHO cells; also called TCR No. 37) V domain 1: AQTVTQSQPEMSVQEAETVTLSCTYDTSESDYYLFWYKQPPSRQMILVIRQEAYKQQNATENRFSVNFQKAAKSFSLKISDSQLGDAAMYFCAYRSATGNQFYFGTGTSLTVIP V domain 2: DVKVTQSSRYLVKRTGEKVFLECVQDMDHENMFWYRQDPGLGLRLIYFSYDVKMKEKGDIPEGYSVSREKKERFSLILESASTNQTSMYLCASSLWGTHEKLFFGSGTQLSVL
3 | 76.5 | recognises |  |  |  | PN41869 (TCR, V domains shown, stained with anti-mouse TCR constant region H57-597; full-length chains on transfected CHO cells; also called TCR No. 38) V domain 1: AQTVTQSQPEMSVQEAETVTLSCTYDTSESDYYLFWYKQPPSRQMILVIRQEAYKQQNATENRFSVNFQKAAKSFSLKISDSQLGDAAMYFCAYRSSTGNQFYFGTGTSLTVIP V domain 2: DVKVTQSSRYLVKRTGEKVFLECVQDMDHENMFWYRQDPGLGLRLIYFSYDVKMKEKGDIPEGYSVSREKKERFSLILESASTNQTSMYLCASSLWGTNEKLFFGSGTQLSVL
4 | 73 | recognises |  |  |  | PN41867 (TCR, V domains shown, stained with anti-mouse TCR constant region H57-597; full-length chains on transfected CHO cells; also called TCR No. 36) V domain 1: AQTVTQSQPEMSVQEAETVTLSCTYDTSENNYYLFWYKQPPSRQMILVIRQEAYKQQNATENRFSVNFQKAAKSFSLKISDSQLGDTAMYFCAFMKTQGGSEKLVFGKGTKLTVNP V domain 2: AAGVIQSPRHLIKEKRETATLKCYPIPRHDTVYWYQQGPGQDPQFLISFYEKMQSDKGSIPDRFSAQQFSDYHSELNMSSLELGDSALYFCASSLVGYGYTFGSGTRLTVV
5 |  |  | 498 | 59.8 | recognises | PN45539 (TCR, V domains shown, stained with anti-mouse TCR constant region H57-597; full-length chains on transfected CHO cells; also called TCR No. 41) V domain 1: DAKTTQPPSMDCAEGRAANLPCNHSTISGNEYVYWYRQIHSQGPQYIIHGLKNNETNEMASLIITEDRKSSTLILPHATLRDTAVYYCIVRPYNAGNNRKLIWGLGTSLAVNP V domain 2: DVKVTQSSRYLVKRTGEKVFLECVQDMDHENMFWYRQDPGLGLRLIYFSYDVKMKEKGDIPEGYSVSREKKERFSLILESASTNQTSMYLCASSFEGGYYGYTFGSGTRLTVV
6 |  |  |  | 69.1 | recognises | PN45584 (TCR, V domains shown, stained with anti-mouse TCR constant region H57-597; full-length chains on transfected CHO cells; also called TCR No. 43) V domain 1: AQKITQTQPGMFVQEKEAVTLDCTYDTSDPSYGLFWYKQPSSGEMIFLIYQGSYDEQNATEGRYSLNFQKARKSANLVISASQLGDSAMYFCAMREGPGSGNTGKLIFGQGTTLQVKP V domain 2: NAGVTQTPKFRILKIGQSMTLQCAQDMNHNYMYWYRQDPGMGLKLIYYSVGAGITDKGEVPNGYNVSRSTTEYFPLRLELAAPSQTSVYFCASSYSEWQNYGYTFGSGTRLTVV

The next lines start with the binder.

Row | Binder | % in Ag+ gate >250 MFI, >1% [1] [%] | binding result [2] | MAGE-A4/MAGE-A8 (ratio of % tetramer in Ag+ gate) [3] | % tetramer in Ag+ gate (MAGE-A4) [4] [%] | binding result [5]
7 | PN41654 (TCR, V domains shown, stained with anti-mouse TCR constant region H57-597; full-length chains on transfected CHO cells; also called TCR No. 22) V domain 1: GESVGLHLPTLSVQEGDNSIINCAYSNSASDYFIWYKQESGKGPQFIIDIRSNMDKRQGQRVTVLLNKTVKHLSLQIAATQPGDSAVYFCAEKRDNYGQNFVFGPGTRLSVLP V domain 2: DVKVTQSSRYLVKRTGEKVFLECVQDMDHENMFWYRQDPGLGLRLIYFSYDVKMKEKGDIPEGYSVSREKKERFSLILESASTNQTSMYLCASSLYSYGYTFGSGTRLTVV | 36.2 | recognises |  |  | 
8 | PN41656 (TCR, V domains shown, stained with anti-mouse TCR constant region H57-597; full-length chains on transfected CHO cells; also called TCR No. 23) V domain 1: AQKITQTQPGMFVQEKEAVTLDCTYDTSDPSYGLFWYKQPSSGEMIFLIYQGSYDQQNATEGRYSLNFQKARKSANLVISASQLGDSAMYFCAMRDLTTSGTYKYIFGTGTRLKVLA V domain 2: DVKVTQSSRYLVKRTGEKVFLECVQDMDHENMFWYRQDPGLGLRLIYFSYDVKMKEKGDIPEGYSVSREKKERFSLILESASTNQTSMYLCASSFGGWGYGYTFGSGTRLTVV | 13.8 | recognises |  |  | 
9 | PN41820 (TCR, V domains shown, stained with anti-mouse TCR constant region H57-597; full-length chains on transfected CHO cells; also called TCR No. 31) V domain 1: AQSVTQPGSHVSVSEGALVLLRCNYSSSVPPYLFWYVQYPNQGLQLLLKYTTGATLVKGINGFEAEFKKSETSFHLTKPSAHMSDAAEYFCAVSSGSARQLTFGSGTQLTVLP V domain 2: DVKVTQSSRYLVKRTGEKVFLECVQDMDHENMFWYRQDPGLGLRLIYFSYDVKMKEKGDIPEGYSVSREKKERFSLILESASTNQTSMYLCASSHDRWDYGYTFGSGTRLTVV | 8.32 | recognises |  |  | 
10 | PN41805 (TCR, V domains shown, stained with anti-mouse TCR constant region H57-597; full-length chains on transfected CHO cells; also called TCR No. 30) V domain 1: AQTVTQSQPEMSVQEAETVTLSCTYDTSENNYYLFWYKQPPSRQMILVIRQEAYKQQNATENRFSVNFQKAAKSFSLKISDSQLGDTAMYFCAFGMYSGGGADGLTFGKGTHLIIQP V domain 2: AAGVIQSPRHLIKEKRETATLKCYPIPRHDTVYWYQQGPGQDPQFLISFYEKMQSDKGSIPDRFSAQQFSDYHSELNMSSLELGDSALYFCASSPTGTGDGYTFGSGTRLTVV | 30.4 | recognises |  |  | 
11 | PN41703 (TCR, V domains shown, stained with anti-mouse TCR constant region H57-597; full-length chains on transfected CHO cells; also called TCR No. 26) V domain 1: DAKTTQPPSMDCAEGRAANLPCNHSTISGNEYVYWYRQIHSQGPQYIIHGLKNNETNEMASLIITEDRKSSTLILPHATLRDTAVYYCIVRPGGTYKYIFGTGTRLKVLA V domain 2: DVKVTQSSRYLVKRTGEKVFLECVQDMDHENMFWYRQDPGLGLRLIYFSYDVKMKEKGDIPEGYSVSREKKERFSLILESASTNQTSMYLCATGGDNQPQHFGDGTRLSIL | 42.5 | recognises |  |  | 
12 | PN41712 (TCR, V domains shown, stained with anti-mouse TCR constant region H57-597; full-length chains on transfected CHO cells; also called TCR No. 27) V domain 1: AQTVTQSQPEMSVQEAETVTLSCTYDTSENNYYLFWYKQPPSRQMILVIRQEAYKQQNATENRFSVNFQKAAKSFSLKISDSQLGDTAMYFCALNTGNQFYFGTGTSLTVIP V domain 2: GAVVSQHPSWVICKSGTSVKIECRSLDFQATTMFWYRQFPKQSLMLMATSNEGSKATYEQGVEKDKFLINHASLTLSTLTVTSAHPEDSSFYICSAWDGFYGYTFGSGTRLTVV | 20.7 | recognises |  |  | 
13 | PN41748 (TCR, V domains shown, stained with anti-mouse TCR constant region H57-597; full-length chains on transfected CHO cells; also called TCR No. 29) V domain 1: SQELEQSQQSLIVQEGKNLTINCTSSKTLYGLYWYKQKYGEGLIFLMMLQKGGEEKSHEKITAKLDEKKQQSSLHITASQPSHAGIYLCGADMYSGGGADGLTFGKGTHLIIQP V domain 2: GAVVSQHPSWVICKSGTSVKIECRSLDFQATTMFWYRQFPKQSLMLMATSNEGSKATYEQGVEKDKFLINHASLTLSTLTVTSAHPEDSSFYICSAWDGFYGYTFGSGTRLTVV | 9.56 | recognises |  |  | 
14 | PN41557 (TCR, V domains shown, stained with anti-mouse TCR constant region H57-597; full-length chains on transfected CHO cells; also called TCR No. 11) V domain 1: EDQVTQSPEALRLQEGESSSLNCSYTVSGLRGLFWYRQDPGKGPEFLFTLYSAGEEKEKERLKATLTKKESFLHITAPKPEDSATYLCAVQAVTGGGNKLTFGTGTQLKVEL V domain 2: GAVVSQHPSWVICKSGTSVKIECRSLDFQATTMFWYRQFPKQSLMLMATSNEGSKATYEQGVEKDKFLINHASLTLSTLTVTSAHPEDSSFYICSASWDRDYGYTFGSGTRLTVV | 8.76 | recognises |  |  | 
15 | PN41613 (TCR, V domains shown, stained with anti-mouse TCR constant region H57-597; full-length chains on transfected CHO cells; also called TCR No. 19) V domain 1: AQTVTQSQPEMSVQEAETVTLSCTYDTSESDYYLFWYKQPPSRQMILVIRQEAYKQQNATENRFSVNFQKAAKSFSLKISDSQLGDAAMYFCAYRSATGNQFYFGTGTSLTVIP V domain 2: EAQVTQNPRYLITVTGKKLTVTCSQNMNHEYMSWYRQDPGLGLRQIYYSMNVEVTDKGDVPEGYKVSRKEKRNFPLILESPSPNQTSLYFCASSLLYSNQPQHFGDGTRLSIL | 58.7 | recognises |  |  | 
16 | PN41550 (TCR, V domains shown, stained with anti-mouse TCR constant region H57-597; full-length chains on transfected CHO cells; also called TCR No. 10) V domain 1: QKEVEQNSGPLSVPEGAIASLNCTYSDRGSQSFFWYRQYSGKSPELIMSIYSNGDKEDGRFTAQLNKASQYVSLLIRDSQPSDSATYLCAVNLSWGKFQFGAGTQVVVTP V domain 2: DAGVTQSPTHLIKTRGQQVTLRCSPKSGHDTVSWYQQALGQGPQFIFQYYEEEERQRGNFPDRFSGHQFPNYSSELNVNALLLGDSALYLCASSLDRSTEAFFGQGTRLTVV | 92.2 | recognises |  |  | 
17 | PN41839 (TCR, V domains shown, stained with anti-mouse TCR constant region H57-597; full-length chains on transfected CHO cells; also called TCR No. 34) V domain 1: DAKTTQPPSMDCAEGRAANLPCNHSTISGNEYVYWYRQIHSQGPQYIIHGLKNNETNEMASLIITEDRKSSTLILPHATLRDTAVYYCIVYGGSQGNLIFGKGTKLSVKP V domain 2: DAGVTQSPTHLIKTRGQQVTLRCSPKSGHDTVSWYQQALGQGPQFIFQYYEEEERQRGNFPDRFSGHQFPNYSSELNVNALLLGDSALYLCASSFSRVQPQHFGDGTRLSIL | 85.4 | recognises |  |  | 
18 | PN41539 (TCR, V domains shown, stained with anti-mouse TCR constant region H57-597; full-length chains on transfected CHO cells; also called TCR No. 9) V domain 1: AQKVTQAQTEISVVEKEDVTLDCVYETRDTTYYLFWYKQPPSGELVFLIRRNSFDEQNEISGRYSWNFQKSTSSFNFTITASQVVDSAVYFCALSEGDTGGFKTIFGAGTRLFVKA V domain 2: NAGVTQTPKFRILKIGQSMTLQCAQDMNHNYMYWYRQDPGMGLKLIYYSVGAGITDKGEVPNGYNVSRSTTEYFPLRLELAAPSQTSVYFCASSYFPDRGLGNTIYFGEGSWLTVV | 10.9 | recognises |  |  | 
19 | PN41516 (TCR, V domains shown, stained with anti-mouse TCR constant region H57-597; full-length chains on transfected CHO cells; also called TCR No. 4) V domain 1: TQLLEQSPQFLSIQEGENLTVYCNSSSVFSSLQWYRQEPGEGPVLLVTVVTGGEVKKLKRLTFQFGDARKDSSLHITAAQPGDTGLYLCAGERDSWGKFQFGAGTQVVVTP V domain 2: NAGVTQTPKFRILKIGQSMTLQCAQDMNHNYMYWYRQDPGMGLKLIYYSVGAGITDKGEVPNGYNVSRSTTEYFPLRLELAAPSQTSVYFCASSFWTGGDEKLFFGSGTQLSVL | 7.83 | recognises |  |  | 
